According to publication PMC12956587:

Target: WIN332 SOSIP Env trimer (HIV-1 strain BG505)
Assay: SEC

WIN332 SOSIP Env trimer (complex) gave a stoichiometry N of 3.
